Results published in US20250277054A1 (WUXI BIOLOGICS IRELAND, published 2025).

Tests used:
[1] = target: T1, full-length cynomolgus PSMA on Flp-in CHO cells (WBP3xx042-FlpinCHO.cPro1.B7) (cynomolgus, UniProt A0A2K5VNZ0 1-750); test: flow cytometry on cynomolgus PSMA-expressing CHO cells
T1 construct: whole, on cells; also called Cyno PSMA+ CHO cells; FlpInCHO-cyno PSMA
Description: (§1) After washing the cells twice with 1×PBS/1% BSA, Alexa fluor 647-labeled goat anti-human antibody (1:500 diluted with 1×PBS/1% BSA) was added into the cells and incubated in a refrigerator set to 4° C. for 0.5 hour in the dark. After washing the cells twice with 1×PBS/1% BSA, the mean fluorescence intensity (MFI) of the cells was measured by a flow cytometer and analyzed by FLOWJO.

[2] = target: T2, human PSMA on human prostate cancer cells (LNCaP, C4-2, 22Rv1) (human, UniProt Q04609 1-750); test: flow cytometry on LNCaP cells
T2 construct: whole, on cells; also called human PSMA-expressing LNCaP cells; C4-2 (PSMA High)
T2 sequence (Q04609 whole entry): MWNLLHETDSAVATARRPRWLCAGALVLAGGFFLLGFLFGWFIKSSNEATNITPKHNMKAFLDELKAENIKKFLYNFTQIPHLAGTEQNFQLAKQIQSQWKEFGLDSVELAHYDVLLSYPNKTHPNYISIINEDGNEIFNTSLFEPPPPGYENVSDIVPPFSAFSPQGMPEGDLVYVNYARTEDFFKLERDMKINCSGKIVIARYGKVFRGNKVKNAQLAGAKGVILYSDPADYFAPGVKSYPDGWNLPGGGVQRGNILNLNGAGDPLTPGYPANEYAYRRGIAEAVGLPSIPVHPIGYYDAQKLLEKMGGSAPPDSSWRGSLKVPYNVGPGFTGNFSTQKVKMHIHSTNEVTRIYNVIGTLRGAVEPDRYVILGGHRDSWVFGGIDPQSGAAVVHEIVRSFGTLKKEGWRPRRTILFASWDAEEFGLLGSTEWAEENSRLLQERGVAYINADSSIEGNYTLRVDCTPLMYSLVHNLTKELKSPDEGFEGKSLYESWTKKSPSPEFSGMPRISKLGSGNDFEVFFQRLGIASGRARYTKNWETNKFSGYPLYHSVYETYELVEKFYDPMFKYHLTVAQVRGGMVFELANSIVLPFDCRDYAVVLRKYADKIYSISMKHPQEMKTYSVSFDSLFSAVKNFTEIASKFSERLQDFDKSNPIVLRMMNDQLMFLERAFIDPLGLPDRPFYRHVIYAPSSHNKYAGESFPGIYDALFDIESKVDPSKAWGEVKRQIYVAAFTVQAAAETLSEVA
Description: as §1, with “FLOWJO. The binding EC50 was calculated by GraphPad Prism through plotting antibody concentration (x-axis) versus MFI (y-axis) and analyzing as: Nonlinear regression (curve fit)-log (agonist) vs. response-Variable slope (four parameters).” for “FLOWJO.”

[3] = target: T3, Cyno PSMA.ECD.His (Acro) (cynomolgus, UniProt A0A2K5VNZ0 44-750); test: SPR (Biacore 8K), antibody captured by anti-human IgG Fc, PSMA injected, 1:1 model
T3 construct: extracellular domain; Bought protein with His tag; also called cynomolgus PSMA ECD protein; Cynomolgus PSMA/FOLH1 protein, His tag
Description: (§2) Each antibody was captured on an anti-human IgG Fc antibody immobilized CM5 sensor chip (Cytiva). Human and cynomolgus PSMA at different concentrations were injected over the sensor chip at a flow rate of 30 μL/min for an association phase of 120-180 s, followed by 600-3600 s dissociation. The chip was regenerated by 10 mM glycine (pH 1.5) after each binding cycle.
(§3) The sensorgrams of blank surface and buffer channel were subtracted from the test sensorgrams. The experimental data was fitted by 1:1 binding model. Molecular weight of 81.4 and 82.7 kDa were used to calculate the molar concentration of human and cynomolgus PSMA.

[4] = target: T4, Human PSMA.ECD.His (Acro) (human, UniProt Q04609 44-750); test: as above
T4 construct: extracellular domain; Bought protein with His tag; also called human PSMA ECD protein; Human PSMA/FOLH1 protein, His tag
T4 sequence (Q04609 44-750): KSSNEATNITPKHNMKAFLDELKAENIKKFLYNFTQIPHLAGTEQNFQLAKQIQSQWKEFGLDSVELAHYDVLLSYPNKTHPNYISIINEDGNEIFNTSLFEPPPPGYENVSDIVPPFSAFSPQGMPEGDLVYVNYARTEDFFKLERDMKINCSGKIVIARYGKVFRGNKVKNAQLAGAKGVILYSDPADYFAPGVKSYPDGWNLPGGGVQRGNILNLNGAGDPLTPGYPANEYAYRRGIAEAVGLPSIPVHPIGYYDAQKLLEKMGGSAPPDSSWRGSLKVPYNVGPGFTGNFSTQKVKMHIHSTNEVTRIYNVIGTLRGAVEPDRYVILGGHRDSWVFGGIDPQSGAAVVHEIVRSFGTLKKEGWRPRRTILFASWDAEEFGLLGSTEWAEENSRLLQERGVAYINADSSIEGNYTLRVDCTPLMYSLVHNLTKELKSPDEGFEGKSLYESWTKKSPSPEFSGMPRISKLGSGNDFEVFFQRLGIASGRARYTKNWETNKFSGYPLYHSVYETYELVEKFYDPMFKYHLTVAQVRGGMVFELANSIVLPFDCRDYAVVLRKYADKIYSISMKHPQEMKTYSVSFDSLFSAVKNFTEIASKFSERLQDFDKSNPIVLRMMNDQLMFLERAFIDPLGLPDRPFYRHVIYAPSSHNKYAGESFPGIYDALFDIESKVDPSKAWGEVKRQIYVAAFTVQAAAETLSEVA
Description: as §2, §3

[5] = target: T3, Cyno PSMA.ECD.His (Acro); test: ELISA, cynomolgus PSMA ECD captured by anti-His antibody
Description: Plate was pre-coated with 1 μg/mL THETM His Tag Antibody overnight in a refrigerator set to 4° C. After blocking with 200 μL of 1×PBS/2% BSA for 1 hour, the plates were washed with 1×PBST for three times, then 0.5 μg/mL cynomolgus PSMA ECD protein diluted in 1×PBS/2% BSA was added in a volume of 50 μL/well to the plate and incubated for 1 hour at ambient temperature. […] After washing the plates with 1×PBST for three times, 50 μL/well of HRP-labeled goat anti-human IgG antibody (1:5000 diluted in 1×PBS/2% BSA) were added into the plate and incubated for 1 hour at ambient temperature. After washing the plates with 1×PBST for six times, the color was developed by dispensing 50 μL/well of TMB substrate for 4-8 minutes, and then the reaction was stopped by adding 50 μL/well of 2M HCl. The absorbance was read at 450 nm using a microplate reader. EC50 was determined as described above.

[6] = target: T4, Human PSMA.ECD.His (Acro); test: ELISA, human PSMA ECD captured by anti-His antibody
Description: Plate was pre-coated with 1 μg/mL THE™ His Tag Antibody overnight in a refrigerator set to 4° C. After blocking with 200 μL of 1×PBS/2% BSA for 1 hour, the plates were washed with 1×PBST for three times, then 0.5 g/mL human PSMA ECD protein diluted in 1×PBS/2% BSA was added in a volume of 50 μL/well to the plate and incubated for 1 hour at ambient temperature. […] After washing the plates with 1×PBST for three times, 50 μL/well of HRP-labeled goat anti-human IgG antibody (1:5000 diluted in 1×PBS/2% BSA) were added into the plate and incubated for 1 hour at ambient temperature. After washing the plates with 1×PBST for six times, the color was developed by dispensing 50 μL/well of TMB substrate for 4-8 minutes, and then the reaction was stopped by adding 50 μL/well of 2M HCl. The absorbance was read at 450 nm using a microplate reader. The binding EC50 was calculated by GraphPad Prism through plotting antibody concentration (x-axis) versus OD450 value (y-axis) and analyzing as: Nonlinear regression (curve fit)-log (agonist) vs. response-Variable slope (four parameters).

[7] = target: T5, Mouse PSMA.ECD.His (Acro) (mouse, UniProt O35409 45-752); test: ELISA, coated mouse PSMA protein (His tag)
T5 construct: extracellular domain; Bought protein with His tag; also called mouse PSMA protein (His tag); Mouse PSMA/FOLH1 protein, His tag
T5 sequence (O35409 45-752): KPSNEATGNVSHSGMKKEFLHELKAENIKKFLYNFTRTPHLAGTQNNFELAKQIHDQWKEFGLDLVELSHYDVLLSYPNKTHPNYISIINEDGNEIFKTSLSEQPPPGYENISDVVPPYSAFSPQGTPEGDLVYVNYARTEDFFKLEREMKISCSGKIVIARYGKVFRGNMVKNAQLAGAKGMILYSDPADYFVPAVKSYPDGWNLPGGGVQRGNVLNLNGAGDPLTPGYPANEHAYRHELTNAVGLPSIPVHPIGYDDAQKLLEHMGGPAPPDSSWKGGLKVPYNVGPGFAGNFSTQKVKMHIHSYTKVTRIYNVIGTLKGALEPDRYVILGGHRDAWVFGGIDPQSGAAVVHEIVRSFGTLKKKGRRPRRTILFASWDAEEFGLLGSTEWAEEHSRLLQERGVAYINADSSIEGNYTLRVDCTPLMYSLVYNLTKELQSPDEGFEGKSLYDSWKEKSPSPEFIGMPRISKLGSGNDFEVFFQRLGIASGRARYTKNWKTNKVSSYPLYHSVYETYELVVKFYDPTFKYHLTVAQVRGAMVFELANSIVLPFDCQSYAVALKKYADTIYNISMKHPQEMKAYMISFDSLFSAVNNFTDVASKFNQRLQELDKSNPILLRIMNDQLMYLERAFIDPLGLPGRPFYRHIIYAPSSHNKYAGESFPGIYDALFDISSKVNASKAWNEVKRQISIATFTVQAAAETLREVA
Description: Briefly, 2 μg/mL mouse PSMA protein (His tag) were coated onto well in ELISA plate in coating buffer for 16 hours in a refrigerator set to 4° C. After washing plate once time with 1×PBST, 200 μL/well 2% BSA were added into wells and incubated for one hour at ambient temperature. […] After washing six times with 1×PBST, 100 μL/well of TMB substrate solution were added into wells and incubated for 5 minutes in dark and then 100 μL/well of 2M HCL were added into wells to stop the reaction. The relative light unit (RLU) were measured at OD450 and OD540 by SPECTRAMAX M5E. EC50 was determined as described above.

EC50 [1]: 2.25 nM
EC50 [2]: 0.25 nM
Kd [3]: 2.84 nM
koff [3]: 0.000584 s⁻¹
kon [3]: 206000 M⁻¹ s⁻¹
Kd [4]: 0.0294 nM
koff [4]: 1.12e-05 s⁻¹
kon [4]: 381000 M⁻¹ s⁻¹
EC50 [5]: 0.006 nM
EC50 [6]: 0.017 nM
EC50 [7]: 0.026 nM
B1: W305042-1.135.2-uIgG1L (antibody, V domains shown)
VH: EVQLVQSGAEVKKPGESLKISCKASGYSFTTYWIGWVRQMPGKGLELMGIIYPYDSDTRYSPSFQGQVTISADKSINTAYLQWSSLKASDTAMYYCARITGGYLFDYWGQGILVTVSS
VL: QSALTQPPSASGSPGQSVTISCTGTSSDVGGYNYVSWYQQHPGKAPKLMIYEVTKRPSGVPDRFSGSKSGNTASLTVSGLQAEDEADYYCTSYAGSNKYVFGTGTKVTVLG
notes: Fully human anti-PSMA monoclonal antibody, human IgG1 with lambda light chain; also called WBP305042; W305042-1.135.2-uIgGIL
